How the values were obtained:
[1] = target: T1, Mtr4ΔF (fist-less) (Saccharomyces cerevisiae, UniProt P47047 1-666+=GGG+814-1073, internal_change); assay: HDX-MS
T1 sequence: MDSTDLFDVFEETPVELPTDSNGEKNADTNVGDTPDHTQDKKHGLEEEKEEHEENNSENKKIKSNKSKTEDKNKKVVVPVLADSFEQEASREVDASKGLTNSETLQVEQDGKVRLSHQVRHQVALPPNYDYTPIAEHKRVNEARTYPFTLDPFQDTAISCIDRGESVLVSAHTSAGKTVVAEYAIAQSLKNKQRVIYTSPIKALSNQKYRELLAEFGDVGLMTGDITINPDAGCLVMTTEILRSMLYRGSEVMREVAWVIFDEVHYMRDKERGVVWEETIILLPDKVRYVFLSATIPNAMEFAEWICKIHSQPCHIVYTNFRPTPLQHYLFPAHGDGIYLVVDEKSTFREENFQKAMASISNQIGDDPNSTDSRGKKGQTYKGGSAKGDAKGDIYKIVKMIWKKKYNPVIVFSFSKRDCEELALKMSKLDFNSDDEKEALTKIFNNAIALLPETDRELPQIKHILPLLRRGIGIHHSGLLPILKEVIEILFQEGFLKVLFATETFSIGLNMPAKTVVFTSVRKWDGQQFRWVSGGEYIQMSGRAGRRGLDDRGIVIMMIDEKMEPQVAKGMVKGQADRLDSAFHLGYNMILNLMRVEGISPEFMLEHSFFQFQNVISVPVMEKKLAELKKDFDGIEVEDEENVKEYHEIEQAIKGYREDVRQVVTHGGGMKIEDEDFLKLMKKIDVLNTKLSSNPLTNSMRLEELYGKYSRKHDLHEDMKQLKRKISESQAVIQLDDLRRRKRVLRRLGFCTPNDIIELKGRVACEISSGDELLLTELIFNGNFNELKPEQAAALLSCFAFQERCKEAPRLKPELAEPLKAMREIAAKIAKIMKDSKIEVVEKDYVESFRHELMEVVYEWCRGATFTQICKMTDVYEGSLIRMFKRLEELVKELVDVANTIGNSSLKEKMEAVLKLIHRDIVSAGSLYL

[2] = target: T2, Mtr4WT (Saccharomyces cerevisiae, UniProt P47047 1-1073); assay: EMSA
T2 sequence: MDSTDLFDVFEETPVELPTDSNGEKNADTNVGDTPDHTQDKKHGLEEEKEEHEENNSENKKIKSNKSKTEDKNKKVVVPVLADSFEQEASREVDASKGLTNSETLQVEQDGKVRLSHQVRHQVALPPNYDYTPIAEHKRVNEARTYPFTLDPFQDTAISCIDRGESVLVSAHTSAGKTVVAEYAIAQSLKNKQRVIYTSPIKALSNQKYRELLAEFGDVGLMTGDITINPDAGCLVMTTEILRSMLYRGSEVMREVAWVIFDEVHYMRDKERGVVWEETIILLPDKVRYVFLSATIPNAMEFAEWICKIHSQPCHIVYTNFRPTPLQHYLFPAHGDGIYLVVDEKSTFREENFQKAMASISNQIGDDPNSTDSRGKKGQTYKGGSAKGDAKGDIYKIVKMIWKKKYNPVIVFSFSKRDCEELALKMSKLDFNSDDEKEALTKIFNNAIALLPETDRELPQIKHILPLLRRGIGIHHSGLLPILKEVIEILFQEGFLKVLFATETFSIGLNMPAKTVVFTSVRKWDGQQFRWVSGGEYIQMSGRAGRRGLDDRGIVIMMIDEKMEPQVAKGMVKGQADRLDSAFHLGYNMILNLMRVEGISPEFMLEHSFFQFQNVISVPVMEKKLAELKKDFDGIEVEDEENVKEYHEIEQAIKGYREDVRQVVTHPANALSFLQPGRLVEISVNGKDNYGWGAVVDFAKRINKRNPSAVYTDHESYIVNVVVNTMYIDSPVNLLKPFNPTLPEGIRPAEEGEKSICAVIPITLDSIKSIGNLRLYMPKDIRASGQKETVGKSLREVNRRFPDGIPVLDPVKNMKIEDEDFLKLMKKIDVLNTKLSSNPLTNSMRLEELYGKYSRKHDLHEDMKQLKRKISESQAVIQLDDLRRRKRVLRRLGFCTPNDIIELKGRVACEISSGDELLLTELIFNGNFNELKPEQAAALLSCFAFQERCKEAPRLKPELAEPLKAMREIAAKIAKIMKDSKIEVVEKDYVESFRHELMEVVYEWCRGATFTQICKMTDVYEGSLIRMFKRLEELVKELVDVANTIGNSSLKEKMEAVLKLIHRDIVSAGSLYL

[3] = target: T1, Mtr4ΔF (fist-less); assay: EMSA

B1: tRNAiMet (structured_RNA)
RNA: GGGGUUCACUGCCGUAUAGGCAGAGCGCCGUGGCGCAGUGGAAGCGCGCAGGGCUCAUAACCCUGAUGUCCUCGGAUCGAAACCGAGCGGCGCCAAAAAAAAACGC
modifications: none (hypomodified, in vitro transcript)
binding result [1]: binds | Kd [2]: 270 ± 20 nM

B2: dsRNA16 (dsRNA)
RNA 1: GCGUCUUUACGGUGCUUAAAAA
RNA 2: AGCACCGUAAAGACGC
Kd [3]: 1420 ± 220 nM | Kd [2]: 1140 ± 80 nM

B3: dsRNA32 (dsRNA)
RNA 1: GCAGGAGCCUAGCUGAAAGAUGUCCUCGGAUCGACGCGUCUUUACGGUGCUUAAAAA
RNA 2: AGCACCGUAAAGACGC
binding result [1]: binds | Kd [2]: 570 ± 30 nM

GCGUCUUUACGGUGCUUAAAACAAAACAAAACAAAACAAAAA (ssRNA) [ssRNA42]
binding result [1]: binds | Kd [2]: 420 ± 40 nM

— paper PMC9023267
